Data: US20070031956

Tested on: S6 peptide (RRRLSSLRA)

Chain of Full-length human Pim-1 kinase (residues M1-K313) with N-terminal HexaHis tag and thrombin cleavage site (chain, as listed by the source): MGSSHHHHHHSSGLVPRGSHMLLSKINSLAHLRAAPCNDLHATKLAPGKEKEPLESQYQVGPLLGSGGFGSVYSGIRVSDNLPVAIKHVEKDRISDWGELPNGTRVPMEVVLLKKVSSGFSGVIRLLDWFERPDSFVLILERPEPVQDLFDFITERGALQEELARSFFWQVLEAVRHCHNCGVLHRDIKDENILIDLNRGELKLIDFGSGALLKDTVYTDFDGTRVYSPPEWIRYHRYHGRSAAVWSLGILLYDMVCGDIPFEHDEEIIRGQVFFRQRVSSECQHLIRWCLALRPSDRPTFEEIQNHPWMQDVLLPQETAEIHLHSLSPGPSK

Full-length human Pim-1 kinase (residues M1-K313) with N-terminal HexaHis tag and thrombin cleavage site
peptide Km (coupled-enzyme kinase assay): peptide Km=51±2 µM
